Patent publication EP4653869A1 (Nantes Université, dated 2025)

T1: recombinant human interleukin-34 (IL-34) (human, UniProt Q6ZMJ4 21-242)
T1 construct: Bought recombinant protein; also called hIL34
T1 sequence (looked up): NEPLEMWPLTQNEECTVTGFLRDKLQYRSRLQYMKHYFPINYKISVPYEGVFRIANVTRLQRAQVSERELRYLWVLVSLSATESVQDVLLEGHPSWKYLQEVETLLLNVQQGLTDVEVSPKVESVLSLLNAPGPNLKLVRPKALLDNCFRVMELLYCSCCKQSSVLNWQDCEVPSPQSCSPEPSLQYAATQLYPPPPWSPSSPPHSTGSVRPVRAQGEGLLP

B1: recombinant human bone morphogenetic protein 2 (BMP-2) (ligand, UniProt P12643 283-396, looked up)
chain: QAKHKQRKRLKSSCKRHPLYVDFSDVGWNDWIVAPPGYHAFYCHGECPFPLADHLNSTNHAIVQTLVNSVNSKIPKACCVPTELSAISMLYLDENEKVVLKNYQDMVVEGCGCR
notes: Immobilized on a CM5 chip by amine coupling in the SPR assay
B2: recombinant human bone morphogenetic protein 4 (BMP-4) (ligand, UniProt P12644 293-408, looked up)
chain: SPKHHSQRARKKNKNCRRHSLYVDFSDVGWNDWIVAPPGYQAFYCHGDCPFPLADHLNSTNHAIVQTLVNSVNSSIPKACCVPTELSAISMLYLDEYDKVVLKNYQEMVVEGCGCR
notes: as for B1
B3: recombinant human bone morphogenetic protein 7 (BMP-7) (ligand, UniProt P18075 293-431, looked up)
chain: STGSKQRSQNRSKTPKNQEALRMANVAENSSSDQRQACKKHELYVSFRDLGWQDWIIAPEGYAAYYCEGECAFPLNSYMNATNHAIVQTLVHFINPETVPKPCCAPTQLNAISVLYFDDSSNVILKKYRNMVVRACGCH
notes: as for B1

target: T1, recombinant human interleukin-34 (IL-34); assay: SPR (Biacore T200), BMP immobilized on CM5 chip, IL-34 as analyte, single cycle titration, bivalent fitting model

Q: Which Kd does the source give for B1 here?
A: Its Kd is 363 nM.

Q: And the koff?
A: Its koff is 0.0229 s⁻¹.

Q: And the kon?
A: Its kon is 63100 M⁻¹ s⁻¹.

Q: With B2 as the binder, how does the Kd read?
A: Its Kd is 426 nM.

Q: And the koff?
A: The koff was 0.0467 s⁻¹.

Q: And the kon?
A: The kon was 110000 M⁻¹ s⁻¹.

Q: B3 was tested. Which Kd did it give?
A: Its Kd is 922 nM.

Q: What about the koff of the same binder?
A: The koff was 0.0561 s⁻¹.

Q: What about the kon of the same binder?
A: The kon was 60800 M⁻¹ s⁻¹.
